{"source": "patent US9932404B2", "about": "(Janssen Biotech, Inc., dated 2018)", "binders": {"B1": {"name": "mAb 15 (antibody)", "heavy": "not shown", "light": "DIQMTQSPSSLSASVGDRVTITCRASQSIGLYLAWYQQKPGKAPKLLIYAASSLQSGVPSRFSGSGSGTDFTLTISSLQPEDFATYYCQQGNTLSYTFGQGTKVEIKRTVAAPSVFIFPPSDEQLKSGTASVVCLLNNFYPREAKVQWKVDNALQSGNSQESVTEQDSKDSTYSLSSTLTLSKADYEKHKVYACEVTHQGLSSPVTKSFNRGEC"}, "B2": {"name": "mAb 5429 (antibody, V domains shown)", "VH": "EVQLVASGGGLVKPGASLKLSCVASGFTFSDYWMAWVRQTPGKPMEYIGDIKSDGSKVNYAPSLKNRFTISRDNARTTLYLQMSNVRSEDTATYYCNRDIGPDWYFDFWGPGTMVTVSS", "VL": "DIQMTQSPTSLSASLGETVTIECRASEDIYNGLAWYQQKPGKSPQLLIYDSNSLHTGVPSRFSGRGSGTQYSLRINSLQSEDVASYFCQQYYDYPLTFGSGTKLEIKR"}, "B3": {"name": "mAb 2 (antibody, V domains shown)", "VH": "QVELVQSGAEVKKPGESLKISCKGSGYSFNNYWIGWVRQMPGKGLEWMGIIDPQDSWTNYAPSFQGQVTISADKSISTAYLQWSSLKASDTAMYYCARNIYEFDYWGQGTLVTVSS", "VL": "DIQMTQSPSSLSASVGDRVTITCRASQGISSWLNWYQQKPGKAPKLLIYGASNLQSGVPSRFSGSGSGTDFTLTISSLQPEDFAVYYCQQYDDFSITFGQGTKVEIK"}, "B4": {"name": "mAb 16 (antibody, V domains shown)", "VH": "B3 VH with Q54G, W57Y", "VL": "B3 VL"}, "B5": {"name": "mAb 8 (antibody, V domains shown)", "VH": "QVELQQSGPGLVKPSQTLSLTCAISGDSVSSNSAAWGWIRQSPGRGLEWLGIIQTRSKWYNDYAVSVKSRITINPDTSKNQFSLQLNSVTPEDTAVYYCARYSYPFYSIDYWGQGTLVTVSS", "VL": "DIELTQPPSVSVAPGQTARISCSGDNIGSYYVHWYQQKPGQAPVLVIYEDSERPSGIPERFSGSNSGNTATLTISGTQAEDEADYYCQSYDSQFSFGVFGGGTKLTVL"}, "B6": {"name": "mAb 11 (antibody, V domains shown)", "VH": "B5 VH with T55K, D62N", "VL": "DIELTQPPSVSVAPGQTARISCSGDNIGSYYVHWYQQKPGQAPVLVIYEDSERPSGIPERFSGSNSGNTATLTISGTQAEDEADYYCSSYDEPNFNVFGGGTKLTVL"}, "B7": {"name": "mAb 12 (antibody, V domains shown)", "V domain 1": "B5 VH with T55K, D62N", "V domain 2": "B5 VH with Q1D, V2I, T55K, D62N"}, "B8": {"name": "mAb 9 (antibody, V domains shown)", "VH": "B5 VH with T55I, V65L", "VL": "B5 VL"}, "B9": {"name": "mAb 10 (antibody, V domains shown)", "VH": "B5 VH with T55K, D62N", "VL": "B6 VL with S88Q, E92T, N94V, F95Y, N96S"}, "B10": {"name": "mAb 18 (antibody, V domains shown)", "VH": "B5 VH with T55K, D62N", "VL": "B5 VL"}, "B11": {"name": "mAb 13 (antibody, V domains shown)", "VH": "QVELVQSGAEVKKPGESLKISCKGSGYSFTNYWVGWVRQMPGKGLEWMGFIDPSDSYTNYAPSFQGQVTISADKSISTAYLQWSSLKASDTAMYYCARELYQGYMDTFDSWGQGTLVTVSS", "VL": "DIQMTQSPSSLSASVGDRVTITCRASQSIGLYLAWYQQKPGKAPKLLIYAASSLQSGVPSRFSGSGSGTDFTLTISSLQPEDFATYYCQQGESILSTFGQGTKVEIK"}, "B12": {"name": "mAb 19 (antibody, V domains shown)", "VH": "B11 VH", "VL": "B11 VL with G91Y, E92G, I94V, L95S, S96I"}, "B13": {"name": "mAb 14 (antibody, V domains shown)", "VH": "B11 VH", "VL": "DIQMTQSPSSLSASVGDRVTITCRASQSIGLYLAWYQQKPGKAPKLLIYAASSLQSGVPSRFSGSGSGTDFTLTISSLQPEDFATYYCQQAETVSPTFGQGTKVEIKR"}, "B14": {"name": "mAb 1 (antibody, V domains shown)", "V domain 1": "GVELVQSGAEVKKPGESLKISCKGSGYSFTDNWISWVRQAPGKGLEWMGVIDPSDSYTNYAPSFQGQVTISADKSISTAYLQWSSLKASDTAMYYCAREWGIGGMVDIWG", "V domain 2": "DIVLTQSPATLSLSPGERATLSCRASQYIDISYLAWYQQKPGQAPRLLIYDASSRATGVPARFSGSGSGTDFTLTISSLEPEDFAVYYCQQYYSLSITFGQGTKVEIK"}, "B15": {"name": "mAb 3 (antibody, V domains shown)", "VH": "QVELQQSGPGLVKPSQTLSLTCAISGDSVSTRSAAWGWIRQSPGRGLEWLGRIHRRSKWYNDYAVSVKSRITINPDTSKNQFSLQLNSVTPEDTAVYYCARHTYPYLSFDVWGQGTLVTVSS", "VL": "DIELTQPPSVSVAPGQTARISCSGDALGGYFVSWYQQKPGQAPVLVIYDDDNRPSGIPERFSGSNSGNTATLTISGTQAEDEADYYCASYDGDEFTVFGGGTKLTVL"}, "B16": {"name": "mAb 4 (antibody, V domains shown)", "VH": "B15 VH with R52K, H54S, R55Y, K58R", "VL": "B15 VL"}, "B17": {"name": "mAb 17 (antibody, V domains shown)", "VH": "B15 VH with H54Y, R55M", "VL": "B15 VL"}, "B18": {"name": "mAb 7 (antibody, V domains shown)", "VH": "B15 VH with H54Y, R55M", "VL": "B15 VL with A88S, G92S, E94S, F95L"}, "B19": {"name": "mAb 5 (antibody, V domains shown)", "VH": "B15 VH with H54Y, R55M", "VL": "B15 VL with A88Q, G92E, E94S, F95A"}, "B20": {"name": "mAb 6 (antibody, V domains shown)", "VH": "B15 VH with H54Y, R55M", "VL": "B15 VL with A88G, G92S, D93N, E94S, F95L"}, "B21": {"name": "mAb 15EVQ (antibody)", "heavy": "not shown", "light": "B1 light"}}, "note": "Substitutions are numbered along the chain they refer to.", "data": [{"molecular_target": "full-length murine TLR3 (mouse)", "experiment": "cell-based or functional assay", "units": {"IC50, poly(I:C)-induced ISRE luciferase reporter": "µg/mL"}, "values": [{"binder": "B1", "IC50, poly(I:C)-induced ISRE luciferase reporter": 22}, {"binder": "B2", "IC50, poly(I:C)-induced ISRE luciferase reporter": 0.5}]}, {"molecular_target": "full length human TLR3 (human)", "experiment": "cell-based or functional assay", "units": {"% inhibition of poly(I:C)-induced NF-κB luciferase reporter": "%"}, "values": [{"binder": "B3", "% inhibition of poly(I:C)-induced NF-κB luciferase reporter": "> 50"}, {"binder": "B4", "% inhibition of poly(I:C)-induced NF-κB luciferase reporter": "> 50"}, {"binder": "B5", "% inhibition of poly(I:C)-induced NF-κB luciferase reporter": "> 50"}, {"binder": "B6", "% inhibition of poly(I:C)-induced NF-κB luciferase reporter": "> 50"}, {"binder": "B7", "% inhibition of poly(I:C)-induced NF-κB luciferase reporter": "> 50"}, {"binder": "B8", "% inhibition of poly(I:C)-induced NF-κB luciferase reporter": "> 50"}, {"binder": "B9", "% inhibition of poly(I:C)-induced NF-κB luciferase reporter": "> 50"}, {"binder": "B10", "% inhibition of poly(I:C)-induced NF-κB luciferase reporter": "> 50"}, {"binder": "B11", "% inhibition of poly(I:C)-induced NF-κB luciferase reporter": "> 50"}, {"binder": "B12", "% inhibition of poly(I:C)-induced NF-κB luciferase reporter": "> 50"}, {"binder": "B13", "% inhibition of poly(I:C)-induced NF-κB luciferase reporter": "> 50"}, {"binder": "B1", "% inhibition of poly(I:C)-induced NF-κB luciferase reporter": "> 50"}, {"binder": "B14", "% inhibition of poly(I:C)-induced NF-κB luciferase reporter": "> 50"}, {"binder": "B15", "% inhibition of poly(I:C)-induced NF-κB luciferase reporter": "> 50"}, {"binder": "B16", "% inhibition of poly(I:C)-induced NF-κB luciferase reporter": "> 50"}, {"binder": "B17", "% inhibition of poly(I:C)-induced NF-κB luciferase reporter": "> 50"}, {"binder": "B18", "% inhibition of poly(I:C)-induced NF-κB luciferase reporter": "> 50"}, {"binder": "B19", "% inhibition of poly(I:C)-induced NF-κB luciferase reporter": "> 50"}, {"binder": "B20", "% inhibition of poly(I:C)-induced NF-κB luciferase reporter": "> 50"}]}, {"molecular_target": "cynomolgus TLR3 (cynomolgus, UniProt A0A2K5WT39)", "experiment": "cell-based or functional assay", "units": {"IC50, ISRE reporter gene assay": "µg/mL", "IC50, NF-κB reporter gene assay": "µg/mL"}, "values": [{"binder": "B21", "IC50, ISRE reporter gene assay": 1.74, "IC50, NF-κB reporter gene assay": 4.18}]}]}
